Data: patent US20170065662A1 (RESEARCH FOUNDATION FOR THE STATE UNIVERSITY OF NEW YORK, published 2017)

Experiments:
[1] = target: T1, SH3 domain of Yes displayed on phage (UniProt P07947 91-152, limits assumed); experiment: phage-ELISA on immobilised GST-K2
T1 construct: domain: SH3; also called Yes-SH3

[2] = target: T2, SH3 domain of Abl displayed on phage (UniProt P00519 61-121, limits assumed); experiment: phage-ELISA on immobilised GST-K2
T2 construct: domain: SH3; also called Abl-SH3

[3] = target: T3, GST-Brk (full length GST-PTK6/Brk, SignalChem) (UniProt Q13882 1-451); experiment: immunoprecipitation with GST antibodies, p27 immunoblot
T3 construct: mature; Bought enzyme; also called full length Brk; GST-tagged Brk; not shown: glutathione S-transferase (GST) tag
Description: The reactions were probed by immunoblot analysis with pY88 and pY74 antibodies (FIG. 3C).

T1 sequence (P07947 91-152 limits assumed): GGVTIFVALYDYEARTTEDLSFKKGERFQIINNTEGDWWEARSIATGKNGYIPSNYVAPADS
T2 sequence (P00519 61-121 limits assumed): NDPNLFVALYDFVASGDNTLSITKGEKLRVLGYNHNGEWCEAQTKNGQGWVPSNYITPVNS

Row | binding result [1] | binding result [2] | binding result [3] | Binder
1 | no binding | no binding |  | DVSGSRPAAPLIGAPA (also called K2 peptide; K2 site; not shown: glutathione S-transferase (GST) tag of the pGEX-KG vector, N-terminal) [GST-K2 (N-terminally GST-tagged p27 K2 PxxP peptide)]
2 |  |  | binds | RKWNFDFQNHKPLEGKYEWQEVEKGSLPEFYYRPPRPPKGACKVPAQES (not shown: Flag tag) [F58-106 (Flag tagged K1-site containing peptide, p27 residues 58 to 106)]
